For 2 substances, fraction of the input immunoprecipitated (fraction of the input) results are on record in paper PMC4991664.

In the assay the target is Atad2-tag (endogenous mouse Atad2 with a C-terminal 6xHis-Flag-Ha TAP tag, knock-in) (mouse (endogenous in 46C ES cells)) (UniProt Q8CDM1). The assay is described as follows: co-IP; anti-Flag immunoprecipitation of protein extracts of 46C^tag and parental 46C ES cells; western blot with anti-H4 and anti-acetylated H4, compared with dilutions of the input.
Chain of UniProt Q8CDM1 (Q8CDM1 whole entry): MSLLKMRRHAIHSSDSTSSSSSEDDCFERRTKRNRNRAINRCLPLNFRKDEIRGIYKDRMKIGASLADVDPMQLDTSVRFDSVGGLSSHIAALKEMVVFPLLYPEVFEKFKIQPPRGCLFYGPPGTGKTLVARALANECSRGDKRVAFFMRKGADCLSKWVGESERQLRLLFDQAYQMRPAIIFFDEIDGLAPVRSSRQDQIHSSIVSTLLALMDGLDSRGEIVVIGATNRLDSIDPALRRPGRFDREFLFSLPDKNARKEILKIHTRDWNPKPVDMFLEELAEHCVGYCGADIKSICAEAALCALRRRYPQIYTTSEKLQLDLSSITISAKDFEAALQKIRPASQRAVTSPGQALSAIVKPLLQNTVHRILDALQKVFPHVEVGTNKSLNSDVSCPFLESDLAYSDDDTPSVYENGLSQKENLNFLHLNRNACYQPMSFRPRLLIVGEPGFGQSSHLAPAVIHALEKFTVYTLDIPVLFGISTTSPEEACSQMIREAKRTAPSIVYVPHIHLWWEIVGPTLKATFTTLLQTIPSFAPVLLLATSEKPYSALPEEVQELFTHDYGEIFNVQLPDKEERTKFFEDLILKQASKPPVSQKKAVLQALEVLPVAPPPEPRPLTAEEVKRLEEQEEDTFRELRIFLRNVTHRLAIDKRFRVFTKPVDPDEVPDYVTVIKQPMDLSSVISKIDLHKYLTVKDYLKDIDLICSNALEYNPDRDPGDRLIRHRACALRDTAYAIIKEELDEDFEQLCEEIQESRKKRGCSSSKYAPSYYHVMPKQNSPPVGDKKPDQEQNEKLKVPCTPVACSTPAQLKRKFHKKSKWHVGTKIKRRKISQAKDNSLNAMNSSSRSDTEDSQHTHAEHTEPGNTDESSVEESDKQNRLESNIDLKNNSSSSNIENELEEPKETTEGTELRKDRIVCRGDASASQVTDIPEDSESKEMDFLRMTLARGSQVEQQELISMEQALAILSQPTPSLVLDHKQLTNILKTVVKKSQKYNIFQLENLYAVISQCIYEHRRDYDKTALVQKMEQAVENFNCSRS

Take “acetylated histone H4 (from UniProt P62806 1-103) (natural protein)”: the fraction of the input immunoprecipitated (fraction of the input) came to 0.02.

In the case of “histone H4 (from UniProt P62806 1-103) (natural protein)”, the fraction of the input immunoprecipitated (fraction of the input) was found to be 0.01.
